The values below come from PMC3975076, “High-throughput binding characterization of RNA aptamer selections using a microplate-based multiplex microcolumn device”.

One series has as its target GFP (UniProt P42212). Kind of series: affinity microcolumn + qPCR. As to conditions: GFP 0.6 ug/uL resin; serial; Binding buffer (composition, pH and temperature not in material) with 10 ug/mL yeast tRNA; serial: 4.75 nM N70 library + 50 pM each aptamer/BBS, 1 mL, protein ….
The next series deals with T1, UBLCP1 (UniProt Q8WVY7).
T1 sequence: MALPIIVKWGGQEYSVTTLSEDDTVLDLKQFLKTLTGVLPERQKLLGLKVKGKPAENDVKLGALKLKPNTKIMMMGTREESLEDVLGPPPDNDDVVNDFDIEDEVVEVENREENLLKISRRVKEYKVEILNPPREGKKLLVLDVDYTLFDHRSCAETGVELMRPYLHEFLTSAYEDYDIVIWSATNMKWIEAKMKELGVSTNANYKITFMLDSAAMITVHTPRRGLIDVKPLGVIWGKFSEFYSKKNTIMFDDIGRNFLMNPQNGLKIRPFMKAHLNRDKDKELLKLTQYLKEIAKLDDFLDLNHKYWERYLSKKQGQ
Kind of series: affinity microcolumn + qPCR. To be noted: value is average over all 7 other targets; Binding buffer (composition, pH and temperature not in material) with 10 ug/mL yeast tRNA; serial: 4.75 nM N70 library + 50 pM each aptamer/BBS, 1 mL, protein …. For orientation: Real-time PCR tracks product formation cycle by cycle.

The next series deals with T2, NELF-E (Drosophila, UniProt P92204 1-280).
T2 sequence: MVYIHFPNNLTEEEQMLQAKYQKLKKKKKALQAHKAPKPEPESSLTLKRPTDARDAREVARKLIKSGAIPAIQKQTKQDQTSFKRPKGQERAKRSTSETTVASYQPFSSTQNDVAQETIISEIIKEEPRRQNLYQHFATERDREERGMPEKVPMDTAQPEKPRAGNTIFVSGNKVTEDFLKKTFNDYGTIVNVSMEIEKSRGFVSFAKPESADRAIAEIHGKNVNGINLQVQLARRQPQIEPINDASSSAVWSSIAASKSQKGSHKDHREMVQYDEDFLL
Description: affinity microcolumn + qPCR; NELF-E 0.6 ug/uL resin; serial; Binding buffer (composition, pH and temperature not in material) with 10 ug/mL yeast tRNA; serial: 4.75 nM N70 library + 50 pM each aptamer/BBS, 1 mL, protein 0.6 ug/uL resin; wash 3 mL at 300 uL/min. As to conditions: protein: recombinant; tags: His6.

Turning to “AGCUUCUGGACUGCGAUGGGAGCACGAAACGUCGUGGCGCAAUUGGGUGGGGAAAGUCCUUAAAAGAGGGCCACCACAGAAGCU [GFPapt (AP3-1)]”, the binding signal (fold enrichment over N70 library) with GFP was determined as 750; in the series with UBLCP1, 0.6.

“GGGAAUGGAUCCACAUCUACGAAUUCAAUCAAGUCCCCAGACUCAGCAACACUGGACAGCGAUAUGCAGAUAACCAAGACCAAUUCACUCCAGUUCACUGCAGACUUGACGAAGCUU [HSFapt]”: in the series with UBLCP1, the binding signal (fold enrichment over N70 library) came to 2.

On to “GGGAAUGGAUCCACAUCUACGAAUUCCCAACGACUGCCGAGCGAGAUUACGCUUGAGCGCCCCACUGAGGAUGCCCACGGGCGAUUGGGGCACGGCUUCACUGCAGACUUGACGAAGCUU [NELFapt]”, for which the binding signal (fold enrichment over N70 library) with UBLCP1 is 1.6.

B1: NELFapt (structured_RNA)
RNA: GGGAAUGGAUCCACAUCUACGAAUUCCCAACGACUGCCGAGCGAGAUUACGCUUGAGCGCCCCACUGAGGAUGCCCACGGGCGAUUGGGGCACGGCUUCACUGCAGACUUGACGAAGCUU
In the case of B1, in the series with NELF-E, the binding signal is 262 fold enrichment over N70 library.
